B1: target 1 U8G,A20C (mixed)
RNA 1: CACCCGUGCAAAAAUGCAGGGGUCUAAAACUGAGCGGAUAACCUCUCUAUGG
RNA 2: GGGAAUGGAUCCACAUCUACGAAUUCGUACCCUAGAGAGGUUAGCCGCUCACCGAGAUCGGAAGAGCACACGU
B2: target 1 U8G,G13A (mixed)
RNA 1: CACCCGUGCAAAAAUGCAGGGGUCUAAAACUGAGCGGAUAACCUCUCUAUGG
RNA 2: GGGAAUGGAUCCACAUCUACGAAUUCGUACCAUAGAGAAGUUAGCCGCUCACCGAGAUCGGAAGAGCACACGU
B3: target 1 C4U,A9C (mixed)
RNA 1: CACCCGUGCAAAAAUGCAGGGGUCUAAAACUGAGCGGAUAACCUCUCUAUGG
RNA 2: GGGAAUGGAUCCACAUCUACGAAUUCGUACCAUAGAGAGGUUCUCCGUUCACCGAGAUCGGAAGAGCACACGU
B4: target 1 del2,del17 (mixed)
RNA 1: CACCCGUGCAAAAAUGCAGGGGUCUAAAACUGAGCGGAUAACCUCUCUAUGG
RNA 2: GGGAAUGGAUCCACAUCUACGAAUUCGUACCAUAAGAGGUUAUCCGCUACCGAGAUCGGAAGAGCACACGU
B5: target 1 insG 3' of 8,insA 3' of 4 (mixed)
RNA 1: CACCCGUGCAAAAAUGCAGGGGUCUAAAACUGAGCGGAUAACCUCUCUAUGG
RNA 2: GGGAAUGGAUCCACAUCUACGAAUUCGUACCAUAGAGAGGUUAUGCCGCAUCACCGAGAUCGGAAGAGCACACGU
B6: target 1 insA 3' of 11,insU 3' of 6 (mixed)
RNA 1: CACCCGUGCAAAAAUGCAGGGGUCUAAAACUGAGCGGAUAACCUCUCUAUGG
RNA 2: GGGAAUGGAUCCACAUCUACGAAUUCGUACCAUAGAGAGGUAUAUCCUGCUCACCGAGAUCGGAAGAGCACACGU
B7: target 1 C22U (mixed)
RNA 1: CACCCGUGCAAAAAUGCAGGGGUCUAAAACUGAGCGGAUAACCUCUCUAUGG
RNA 2: GGGAAUGGAUCCACAUCUACGAAUUCGUAUCAUAGAGAGGUUAUCCGCUCACCGAGAUCGGAAGAGCACACGU
B8: target 1 U8C,A9U (mixed)
RNA 1: CACCCGUGCAAAAAUGCAGGGGUCUAAAACUGAGCGGAUAACCUCUCUAUGG
RNA 2: GGGAAUGGAUCCACAUCUACGAAUUCGUACCAUAGAGAGGUUUCCCGCUCACCGAGAUCGGAAGAGCACACGU
B9: target 1 insU 3' of 7,insG 3' of 3 (mixed)
RNA 1: CACCCGUGCAAAAAUGCAGGGGUCUAAAACUGAGCGGAUAACCUCUCUAUGG
RNA 2: GGGAAUGGAUCCACAUCUACGAAUUCGUACCAUAGAGAGGUUAUCUCGCUGCACCGAGAUCGGAAGAGCACACGU
B10: target 1 C7U,G15A (mixed)
RNA 1: CACCCGUGCAAAAAUGCAGGGGUCUAAAACUGAGCGGAUAACCUCUCUAUGG
RNA 2: GGGAAUGGAUCCACAUCUACGAAUUCGUACCAUAGAAAGGUUAUUCGCUCACCGAGAUCGGAAGAGCACACGU
B11: target 1 A1C,U3A (mixed)
RNA 1: CACCCGUGCAAAAAUGCAGGGGUCUAAAACUGAGCGGAUAACCUCUCUAUGG
RNA 2: GGGAAUGGAUCCACAUCUACGAAUUCGUACCAUAGAGAGGUUAUCCGCACCCCGAGAUCGGAAGAGCACACGU
B12: target 1 C4G,A18G (mixed)
RNA 1: CACCCGUGCAAAAAUGCAGGGGUCUAAAACUGAGCGGAUAACCUCUCUAUGG
RNA 2: GGGAAUGGAUCCACAUCUACGAAUUCGUACCAUGGAGAGGUUAUCCGGUCACCGAGAUCGGAAGAGCACACGU
B13: target 1 C2G,C6A (mixed)
RNA 1: CACCCGUGCAAAAAUGCAGGGGUCUAAAACUGAGCGGAUAACCUCUCUAUGG
RNA 2: GGGAAUGGAUCCACAUCUACGAAUUCGUACCAUAGAGAGGUUAUCAGCUGACCGAGAUCGGAAGAGCACACGU
B14: target 1 insG 3' of 22,insG 3' of 9 (mixed)
RNA 1: CACCCGUGCAAAAAUGCAGGGGUCUAAAACUGAGCGGAUAACCUCUCUAUGG
RNA 2: GGGAAUGGAUCCACAUCUACGAAUUCGUACGCAUAGAGAGGUUAGUCCGCUCACCGAGAUCGGAAGAGCACACGU
B15: target 1 insG 3' of 16,insU 3' of 1 (mixed)
RNA 1: CACCCGUGCAAAAAUGCAGGGGUCUAAAACUGAGCGGAUAACCUCUCUAUGG
RNA 2: GGGAAUGGAUCCACAUCUACGAAUUCGUACCAUAGAGGAGGUUAUCCGCUCAUCCGAGAUCGGAAGAGCACACGU
B16: target 1 A1U,U3C (mixed)
RNA 1: CACCCGUGCAAAAAUGCAGGGGUCUAAAACUGAGCGGAUAACCUCUCUAUGG
RNA 2: GGGAAUGGAUCCACAUCUACGAAUUCGUACCAUAGAGAGGUUAUCCGCCCUCCGAGAUCGGAAGAGCACACGU
B17: target 1 del1,del4 (mixed)
RNA 1: CACCCGUGCAAAAAUGCAGGGGUCUAAAACUGAGCGGAUAACCUCUCUAUGG
RNA 2: GGGAAUGGAUCCACAUCUACGAAUUCGUACCAUAGAGAGGUUAUCCGUCCCGAGAUCGGAAGAGCACACGU
B18: target 1 U3G,G12A (mixed)
RNA 1: CACCCGUGCAAAAAUGCAGGGGUCUAAAACUGAGCGGAUAACCUCUCUAUGG
RNA 2: GGGAAUGGAUCCACAUCUACGAAUUCGUACCAUAGAGAGAUUAUCCGCGCACCGAGAUCGGAAGAGCACACGU
B19: target 1 insA 3' of 22,insC 3' of 13 (mixed)
RNA 1: CACCCGUGCAAAAAUGCAGGGGUCUAAAACUGAGCGGAUAACCUCUCUAUGG
RNA 2: GGGAAUGGAUCCACAUCUACGAAUUCGUACACAUAGAGAGCGUUAUCCGCUCACCGAGAUCGGAAGAGCACACGU
B20: target 1 U3A (mixed)
RNA 1: CACCCGUGCAAAAAUGCAGGGGUCUAAAACUGAGCGGAUAACCUCUCUAUGG
RNA 2: GGGAAUGGAUCCACAUCUACGAAUUCGUACCAUAGAGAGGUUAUCCGCACACCGAGAUCGGAAGAGCACACGU
B21: target 1 insC 3' of 19,insU 3' of 2 (mixed)
RNA 1: CACCCGUGCAAAAAUGCAGGGGUCUAAAACUGAGCGGAUAACCUCUCUAUGG
RNA 2: GGGAAUGGAUCCACAUCUACGAAUUCGUACCAUCAGAGAGGUUAUCCGCUCUACCGAGAUCGGAAGAGCACACGU
B22: target 1 C7A,G13A (mixed)
RNA 1: CACCCGUGCAAAAAUGCAGGGGUCUAAAACUGAGCGGAUAACCUCUCUAUGG
RNA 2: GGGAAUGGAUCCACAUCUACGAAUUCGUACCAUAGAGAAGUUAUACGCUCACCGAGAUCGGAAGAGCACACGU
B23: target 1 insC 3' of 10,insA 3' of 8 (mixed)
RNA 1: CACCCGUGCAAAAAUGCAGGGGUCUAAAACUGAGCGGAUAACCUCUCUAUGG
RNA 2: GGGAAUGGAUCCACAUCUACGAAUUCGUACCAUAGAGAGGUUCAUACCGCUCACCGAGAUCGGAAGAGCACACGU
B24: target 1 A1C,U11C (mixed)
RNA 1: CACCCGUGCAAAAAUGCAGGGGUCUAAAACUGAGCGGAUAACCUCUCUAUGG
RNA 2: GGGAAUGGAUCCACAUCUACGAAUUCGUACCAUAGAGAGGCUAUCCGCUCCCCGAGAUCGGAAGAGCACACGU
B25: target 1 del2,del4 (mixed)
RNA 1: CACCCGUGCAAAAAUGCAGGGGUCUAAAACUGAGCGGAUAACCUCUCUAUGG
RNA 2: GGGAAUGGAUCCACAUCUACGAAUUCGUACCAUAGAGAGGUUAUCCGUACCGAGAUCGGAAGAGCACACGU
B26: target 1 insU 3' of 21,insG 3' of 8 (mixed)
RNA 1: CACCCGUGCAAAAAUGCAGGGGUCUAAAACUGAGCGGAUAACCUCUCUAUGG
RNA 2: GGGAAUGGAUCCACAUCUACGAAUUCGUACCUAUAGAGAGGUUAUGCCGCUCACCGAGAUCGGAAGAGCACACGU
B27: target 1 U11C (mixed)
RNA 1: CACCCGUGCAAAAAUGCAGGGGUCUAAAACUGAGCGGAUAACCUCUCUAUGG
RNA 2: GGGAAUGGAUCCACAUCUACGAAUUCGUACCAUAGAGAGGCUAUCCGCUCACCGAGAUCGGAAGAGCACACGU

Broadly, the Kd is the constant that tells how readily two partners part at equilibrium. A lower Kd goes with higher affinity.

This series concerns the target T1, EsCas13d, nuclease-dead (Eubacterium siraeum, UniProt B0MS50, R295A;H300A;R849A;H854A).
T1 sequence: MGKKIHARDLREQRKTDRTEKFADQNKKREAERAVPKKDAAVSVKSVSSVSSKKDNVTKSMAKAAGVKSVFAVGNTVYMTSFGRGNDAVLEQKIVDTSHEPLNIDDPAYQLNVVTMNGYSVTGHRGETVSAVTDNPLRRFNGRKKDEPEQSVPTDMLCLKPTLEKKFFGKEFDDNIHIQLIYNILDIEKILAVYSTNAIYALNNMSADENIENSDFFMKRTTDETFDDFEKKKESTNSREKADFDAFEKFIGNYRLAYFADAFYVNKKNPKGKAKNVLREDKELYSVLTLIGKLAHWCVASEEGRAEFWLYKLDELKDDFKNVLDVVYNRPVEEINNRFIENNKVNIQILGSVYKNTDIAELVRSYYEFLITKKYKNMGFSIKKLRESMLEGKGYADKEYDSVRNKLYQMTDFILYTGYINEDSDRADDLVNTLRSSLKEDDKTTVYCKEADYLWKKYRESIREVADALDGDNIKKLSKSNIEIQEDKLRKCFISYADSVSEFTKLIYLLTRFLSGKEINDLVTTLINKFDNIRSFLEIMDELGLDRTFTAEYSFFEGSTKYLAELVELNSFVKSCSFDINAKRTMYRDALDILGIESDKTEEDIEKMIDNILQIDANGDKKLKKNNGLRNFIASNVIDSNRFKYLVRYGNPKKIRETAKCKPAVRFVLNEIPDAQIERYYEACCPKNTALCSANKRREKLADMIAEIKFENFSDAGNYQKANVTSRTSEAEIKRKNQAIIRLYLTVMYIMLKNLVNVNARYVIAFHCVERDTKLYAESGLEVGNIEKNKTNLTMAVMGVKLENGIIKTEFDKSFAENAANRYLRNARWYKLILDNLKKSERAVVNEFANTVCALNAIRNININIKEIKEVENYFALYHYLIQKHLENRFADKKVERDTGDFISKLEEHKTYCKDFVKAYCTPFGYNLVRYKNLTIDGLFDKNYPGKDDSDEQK
In words: crRNA (strand 1, pre-loaded); Mg2+; 40 mM Tris-HCl pH 7.5, 150 mM NaCl, 6 mM MgCl2, 1 mM DTT, 0.1% Tween-20, 0.2 mg/ml BSA; 25 C; 10 min per concentration, then washed. To be noted: tags: His6-TwinStrep-SUMO cleaved; N-terminal SNAP kept (SNAP-Surface 488); label: 3' end held by stalled T7 RNA polymerase.
In turn, B1 yielded a Kd of 91 ± 34 nM.

Consider B2, for which the Kd came out at 12.6 ± 0.9 nM.

For the molecule B3, the Kd came to 26 ± 4 nM.

Regarding B4, the Kd was ~70 nM.

For B5, binding was put at a Kd of 12 ± 0.7 nM.

Molecule B6 returned a Kd of 18.2 ± 0.7 nM.

With B7, the affinity, expressed as Kd, was 16.6 ± 1.1 nM.

B8 returned a Kd of 20.5 ± 0.8 nM.

Consider B9, for which the Kd stood at 5.45 ± 0.31 nM.

Regarding B10, the Kd stood at 9.8 ± 0.6 nM.

Take B11: binding was put at a Kd of 37 ± 7 nM.

B12 had a Kd of 36 ± 12 nM.

The molecule B13 gave a Kd of 4.49 ± 0.17 nM.

The molecule B14 yielded a Kd of 28.2 ± 1.8 nM.

For B15, the Kd is 16 ± 1.3 nM.

Consider B16, for which the Kd turned out to be 20.9 ± 1.9 nM.

B17 gave a Kd of 42 ± 8 nM.

The molecule B18 displayed a Kd of 4 ± 0.5 nM.

The molecule B19 registered a Kd of 22 ± 1.3 nM.

B20 showed a Kd of 15 ± 1.3 nM.

Molecule B21 returned a Kd of 32.7 ± 2.9 nM.

B22: the Kd amounted to 10.8 ± 0.7 nM.

Regarding B23, the Kd came to 18.8 ± 0.8 nM.

B24 returned a Kd of 22 ± 4 nM.

In turn, B25 displayed a Kd of 42 ± 10 nM.

The molecule B26 yielded a Kd of 34.9 ± 3 nM.

B27 yielded a Kd of 8.9 ± 0.6 nM.

For the origin of these results see PMC10786891, “Massively parallel profiling of RNA-targeting CRISPR-Cas13d”.
